According to article PMC10899793, “Toxin release by conditional remodelling of ParDE1 from Mycobacterium tuberculosis leads to gyrase inhibition” (Nucleic Acids Research, 2023):

T1: ParE1 toxin of Mycobacterium tuberculosis H37Rv (Mycobacterium tuberculosis H37Rv, UniProt P9WHG7 1-98)
T1 construct: also called Rv1959c; not shown: 6His-SUMO, N-terminal, cleaved
T1 sequence: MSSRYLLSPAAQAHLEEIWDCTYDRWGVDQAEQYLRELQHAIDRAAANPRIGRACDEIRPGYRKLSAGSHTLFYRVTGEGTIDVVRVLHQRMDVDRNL

B1: ParD1 antitoxin of Mycobacterium tuberculosis H37Rv (natural protein)
chain: MGKNTSFVLDEHYSAFIDGEIAAGRYRSASEVIRSALRLLEDRETQLRALREALEAGERSGSSTPFDFDGFLGRKRADASRGR
notes: Antitoxin ParD1, gene parD1 (rv1960c), M. tuberculosis H37Rv; printed mass 9.21 kDa; residues are numbered up to R83; also called primary ParD1; auxiliary ParD1
B2: ParE2 toxin of Mycobacterium tuberculosis H37Rv (natural protein)
chain: MTRRLRVHNGVEDDLFEAFSYYADAAPDQIDRLYNLFVDAVTKRIPQAPNAFAPLFKHYRHIYLRPFRYYVAYRTTDEAIDILAVRHGMENPNAVEAEISGRTFE

Tests used:
[1] = target: T1, ParE1 toxin of Mycobacterium …; assay: SEC; settings: both partners purified
[2] = target: T1, ParE1 toxin of Mycobacterium …; assay: mass photometry; settings: both partners purified
crystal structure = target: the molecule itself; assay: crystal structure
[3] = target: Mycobacterium tuberculosis DNA gyrase holoenzyme GyrB2A2 (Mycobacterium tuberculosis) (UniProt P9WG47)
Sequence of Mycobacterium tuberculosis DNA gyrase holoenzyme GyrB2A2 (Mycobacterium tuberculosis) (P9WG47 whole entry, chain 1 of 2): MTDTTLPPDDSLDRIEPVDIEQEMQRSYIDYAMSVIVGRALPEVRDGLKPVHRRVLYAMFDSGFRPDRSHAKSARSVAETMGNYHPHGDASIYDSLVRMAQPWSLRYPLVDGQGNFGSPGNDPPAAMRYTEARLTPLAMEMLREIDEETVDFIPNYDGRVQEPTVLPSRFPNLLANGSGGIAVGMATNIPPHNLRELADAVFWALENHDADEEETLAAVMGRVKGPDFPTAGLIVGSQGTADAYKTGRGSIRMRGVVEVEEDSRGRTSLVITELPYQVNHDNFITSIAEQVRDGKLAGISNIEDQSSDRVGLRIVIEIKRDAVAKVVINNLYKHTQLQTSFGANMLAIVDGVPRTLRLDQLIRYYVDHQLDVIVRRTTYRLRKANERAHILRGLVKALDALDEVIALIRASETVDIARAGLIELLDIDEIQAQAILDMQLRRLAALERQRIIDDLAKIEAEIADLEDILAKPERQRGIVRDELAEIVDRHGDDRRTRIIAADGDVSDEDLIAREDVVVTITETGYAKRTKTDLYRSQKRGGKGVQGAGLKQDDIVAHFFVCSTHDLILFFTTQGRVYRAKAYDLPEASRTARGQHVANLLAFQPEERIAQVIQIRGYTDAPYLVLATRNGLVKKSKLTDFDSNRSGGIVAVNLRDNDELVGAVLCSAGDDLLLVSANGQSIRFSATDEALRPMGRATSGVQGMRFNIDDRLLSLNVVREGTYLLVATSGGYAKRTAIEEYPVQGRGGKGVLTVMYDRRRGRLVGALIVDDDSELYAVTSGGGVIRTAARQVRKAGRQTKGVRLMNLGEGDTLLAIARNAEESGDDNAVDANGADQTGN
Sequence of Mycobacterium tuberculosis DNA gyrase holoenzyme GyrB2A2 (Mycobacterium tuberculosis) (P9WG45 whole entry, chain 2 of 2, further chain): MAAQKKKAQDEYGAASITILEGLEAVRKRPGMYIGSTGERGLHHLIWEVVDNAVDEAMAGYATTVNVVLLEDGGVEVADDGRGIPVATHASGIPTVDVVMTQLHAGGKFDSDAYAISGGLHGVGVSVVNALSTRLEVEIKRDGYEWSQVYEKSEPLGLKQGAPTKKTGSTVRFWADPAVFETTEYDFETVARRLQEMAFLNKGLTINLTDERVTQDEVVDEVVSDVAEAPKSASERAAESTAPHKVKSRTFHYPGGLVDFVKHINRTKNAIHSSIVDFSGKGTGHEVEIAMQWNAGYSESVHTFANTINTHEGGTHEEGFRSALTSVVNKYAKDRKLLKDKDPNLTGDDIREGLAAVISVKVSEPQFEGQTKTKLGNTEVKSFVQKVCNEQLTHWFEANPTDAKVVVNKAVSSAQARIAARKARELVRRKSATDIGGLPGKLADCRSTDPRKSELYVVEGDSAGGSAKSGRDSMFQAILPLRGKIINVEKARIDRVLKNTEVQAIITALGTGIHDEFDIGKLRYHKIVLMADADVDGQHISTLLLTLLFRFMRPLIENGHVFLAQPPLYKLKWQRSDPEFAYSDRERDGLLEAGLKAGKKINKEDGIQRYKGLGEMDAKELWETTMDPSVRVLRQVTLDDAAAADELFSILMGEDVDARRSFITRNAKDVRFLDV

Binder	stoichiometry N [1]	stoichiometry N [2]	stoichiometry N (crystal structure)	linearisation of supercoiled pSG483 in the M. tuberculosis gyrase DNA relaxation (cleavage) assay; ParE2 titrated against constant GyrB2A2 (31.25 nM); value at the highest concentration tested (% of substrate pSG483 linearised) [3]
B1	2 ParD1 per ParE1 (4:2 heterohexamer)	1 ParD1 per ParE1 (2:2 heterotetramer)	4	
B2				50
